These results are taken from patent US20250333496A1 (Novo Nordisk, published 2025).

The target of experiment [1] is T1, human IL-6 (mature hIL-6) (human, UniProt P05231 30-212). Description: cell-based or functional assay.
Experiment [2] deals with T1, human IL-6 (mature hIL-6). Put plainly: SPR (format not stated).
The target of experiment [3] is T1, human IL-6 (mature hIL-6). Put plainly: cell-based or functional assay. The source holds these as a separate data set.

By Kd is commonly meant the free concentration of one partner at which half of the binding sites on the other are occupied at equilibrium, for simple one-to-one binding.

T1 sequence (P05231 30-212): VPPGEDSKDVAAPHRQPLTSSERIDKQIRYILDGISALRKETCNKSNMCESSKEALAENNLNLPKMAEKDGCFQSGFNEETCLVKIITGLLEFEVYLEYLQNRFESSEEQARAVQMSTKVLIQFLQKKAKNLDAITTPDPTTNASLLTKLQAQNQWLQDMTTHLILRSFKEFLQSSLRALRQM

B1: Polypeptide_51 (VHH)
VHH: EVQLVESGGGWVQPGGSLKLSCTTSGRRFSEYAVGWFRQAPGKEREFVADIGEQAENTWYAESVLGRFTISRDDAKNTVYLEMDGLKPEDTAVYYCAADKYGVGGNAQGYYDSWGQGTQVTVSS
For B1, in experiment [1], the “IC50 (nM), STAT3-luc reporter gene assay” value is 0.053 nM and the “Relative IC50 to Reference Polypeptide_29” value (shortened to “Relative IC50”) came to 1.5 fold.

B2: Polypeptide_52 (VHH)
VHH: EVQLVESGGGLVQPGGSLKLSCTTSGRTFSEYAVGWFRQAPGKEREFVADIGEQAENTWYAESVLGRFTISRDDAKNTVYLEMDGLKPEDTAVYYCAADKYGVGGNAQGYYDSWGQGTQVTVSS
On to B2, for which, in experiment [1], the “IC50 (nM), STAT3-luc reporter gene assay” value was 0.055 nM and the “Relative IC50” value came to 1.6 fold.

B3: Polypeptide_53 (VHH)
VHH: EVQLVESGGGLVQPGGSLKLSCTTSGRRFSSYAVGWFRQAPGKEREFVADIGEQAENTWYAESVLGRFTISRDDAKNTVYLEMDGLKPEDTAVYYCAADKYGVGGNAQGYYDSWGQGTQVTVSS
With B3, in experiment [1], the “IC50 (nM), STAT3-luc reporter gene assay” value was found to be 0.05 nM and the “Relative IC50” value was found to be 1.5 fold.

B4: Polypeptide_59 (VHH)
VHH: EVQLVESGGGLVQPGGSLKLSCTTSGRRFSEYAVGWFRQAPGKEREFVADIGEQAENTWYAESVLGRFTISRDDAKNTVYLEMNGLKPEDTAVYYCAADKYGVGGNAQGYYDSWGQGTQVTVSS
For B4, in experiment [1], the “IC50 (nM), STAT3-luc reporter gene assay” value amounted to 0.043 nM and the “Relative IC50” value stood at 1.2 fold.

B5: Polypeptide_62 (VHH)
VHH: EVQLVESGGGLVQPGGSLKLSCTTSGRRFSEYAVGWFRQAPGKEREFVADIGEQAENTWYAESVLGRFTISRDDAKNTVYLEMDGLKPEDTAVYYCAADKYGVGGGAQGYYDSWGQGTQVTVSS
For B5, in experiment [1], the “IC50 (nM), STAT3-luc reporter gene assay” value is 0.13 nM and the “Relative IC50” value was 3.8 fold.

B6: Polypeptide_54 (VHH)
VHH: EVQLVESGGGLVQPGGSLKLSCTTSGRRFSEYAVGWFRQAPGKEREFVADIGENAENTWYAESVLGRFTISRDDAKNTVYLEMDGLKPEDTAVYYCAADKYGVGGNAQGYYDSWGQGTQVTVSS
Turning to B6, in experiment [1], the “IC50 (nM), STAT3-luc reporter gene assay” value came out at 0.15 nM and the “Relative IC50” value was 4.4 fold.

B7: Polypeptide_60 (VHH)
VHH: EVQLVESGGGLVQPGGSLKLSCTTSGRRFSEYAVGWFRQAPGKEREFVADIGEQAENTWYAESVLGRFTISRDDAKNTVYLEMDSLKPEDTAVYYCAADKYGVGGNAQGYYDSWGQGTQVTVSS
Regarding B7, in experiment [1], the “IC50 (nM), STAT3-luc reporter gene assay” value was 0.057 nM and the “Relative IC50” value worked out at 1.7 fold.

B8: Polypeptide_61 (VHH)
VHH: EVQLVESGGGLVQPGGSLKLSCTTSGRRFSEYAVGWFRQAPGKEREFVADIGEQAENTWYAESVLGRFTISRDDAKNTVYLEMDGLKPEDTAVYYCAADSYGVGGNAQGYYDSWGQGTQVTVSS
As to B8, in experiment [1], the “IC50 (nM), STAT3-luc reporter gene assay” value stood at 0.054 nM and the “Relative IC50” value is 1.6 fold.

B9: Polypeptide_56 (VHH)
VHH: EVQLVESGGGLVQPGGSLKLSCTTSGRRFSEYAVGWFRQAPGKEREFVADIGEQAENTWYAHSVLGRFTISRDDAKNTVYLEMDGLKPEDTAVYYCAADKYGVGGNAQGYYDSWGQGTQVTVSS
In the case of B9, in experiment [1], the “IC50 (nM), STAT3-luc reporter gene assay” value was 0.168 nM and the “Relative IC50” value is 4.9 fold.

B10: Polypeptide_58 (VHH)
VHH: EVQLVESGGGLVQPGGSLKLSCTTSGRRFSEYAVGWFRQAPGKEREFVADIGEQAENTWYAESVLGRFTISRDNAKNTVYLEMDGLKPEDTAVYYCAADKYGVGGNAQGYYDSWGQGTQVTVSS
As for B10, in experiment [1], the “IC50 (nM), STAT3-luc reporter gene assay” value stood at 0.047 nM and the “Relative IC50” value amounted to 1.4 fold.

B11: Polypeptide_55 (VHH)
VHH: EVQLVESGGGLVQPGGSLKLSCTTSGRRFSEYAVGWFRQAPGKEREFVADIGEQADNTWYAESVLGRFTISRDDAKNTVYLEMDGLKPEDTAVYYCAADKYGVGGNAQGYYDSWGQGTQVTVSS
As for B11, in experiment [1], the “IC50 (nM), STAT3-luc reporter gene assay” value was 0.278 nM and the “Relative IC50” value came out at 8.1 fold.

B12: Polypeptide_57 (VHH)
VHH: EVQLVESGGGLVQPGGSLKLSCTTSGRRFSEYAVGWFRQAPGKEREFVADIGEQAENTWYAESVKGRFTISRDDAKNTVYLEMDGLKPEDTAVYYCAADKYGVGGNAQGYYDSWGQGTQVTVSS
Turning to B12, in experiment [1], the “IC50 (nM), STAT3-luc reporter gene assay” value was found to be 0.08 nM and the “Relative IC50” value came to 2.3 fold.

B13: Polypeptide_3 (VHH)
VHH: QVQLQESGGGLVQAGGSLRLSCTTSGRTFSSYAMGWFRQAPGKEREFVADIGENADNRWYAHSVKGRFTISRDNAKNTVYLQMNSLKPEDTAVYYCAADRYGVGGGAQGYYDSWGQGTQVTVSS
notes: VHH_2.3 with C-terminal His tag extension E1; also called [VHH_2.3]-E1
Take B13: binding in experiment [2] was characterised by a dissociation constant (Kd) of 872 pM. Further, the “Reporter gene-assay [pM]” value in experiment [3] amounted to 39.8 pM.

B14: Polypeptide_7 (VHH)
VHH: EVQLVESGGRWVQPGASLRLSCTTSGRTFSSYAMGWFRQAPGKEREFVADIGENADNRWYAHSVKGRFTISRDNAKNTVYLQMNSLKPEDTAVYYCAADRYGVGGGAQGYYDSWGQGTQVTVSS
notes: VHH_2.7 with C-terminal His tag extension E1; also called [VHH_2.7]-E1
Molecule B14 showed a Kd in experiment [2] of 631 pM. In experiment [3], the “Reporter gene-assay [pM]” value was determined as 42.1 pM.

B15: Polypeptide_16 (VHH)
VHH: EVQLVESGGGLVQPGGSLSLSCTASGRTFSSYAMGWFRQAPGKEREFVADIGENADNRWYAHSVKGRFTISRDNAKNTVYLQMNSLKPEDTAVYYCAADRYGVGGGAQGYYDSWGQGTQVTVSS
notes: VHH_2.16 with C-terminal His tag extension E1; also called [VHH_2.16]-E1
Regarding B15, in experiment [2], the Kd amounted to 1 pM. The “Reporter gene-assay [pM]” value in experiment [3] is 52.4 pM.

B16: Polypeptide_33 (VHH)
VHH: EVQLVESGGGLVQPGGSLRLSCTTSGRTFSSYAVGWFRQAPGKEREFVADIGENADNTWYAHSVKGRFTISRDNAKNTVYLQMNSLKPEDTAVYYCAADSYGVGGGAQGYYDSWGQGTQVTVSS
notes: VHH_1.9 with C-terminal His tag extension E1; also called [VHH_1.9]-E1
As for B16, in experiment [2], binding was put at a Kd of 358 pM. For the same molecule, the “Reporter gene-assay [pM]” value in experiment [3] stood at 62.1 pM.

B17: Polypeptide_14 (VHH)
VHH: QLQLVESGGGSVQVGDSLRLSCTFSGRSFSSYAMGWFRQAPGKEREFVADIGENADNTWYAHSVKGRFTISRDNAKNTVYLQMNSLKPEDTAVYYCAADSYGVGGGAQGYYDSWGQGTQVTVSS
notes: VHH_2.14 with C-terminal His tag extension E1; also called [VHH_2.14]-E1
Take B17: in experiment [2], the Kd stood at 396 pM. For the same molecule, the “Reporter gene-assay [pM]” value in experiment [3] came out at 72.9 pM.

B18: Polypeptide_1 (VHH)
VHH: QVQLVESGGDLVQPGGSLRLSCTTSGRTFSSYAMGWFRQAPGKEREFVADIGENADNRWYAHSVKGRFTISRDNAKNTVYLQMNSLKPEDTAVYYCAADRYGVGGGAQGYYDSWGQGTQVTVSS
notes: VHH_2.1 with C-terminal His tag extension E1; also called [VHH_2.1]-E1
In experiment [2], B18 registered a Kd of 627 pM. In experiment [3], the “Reporter gene-assay [pM]” value was 47.4 pM.

B19: Polypeptide_10 (VHH)
VHH: QVQLQESGGGLVQAGGSLRLSCTVSGRTFSTYAMGWFRQAPGKEREFVADINWNSDNIWYADSVKGRFTISRDNAKNVMYLQMNSLKPEDTAVYYCAADSYGVGGGKEEYYDSWGQGTQVTVSS
notes: VHH_2.10 with C-terminal His tag extension E1; also called [VHH_2.10]-E1
As to B19, in experiment [2], binding was characterised by a dissociation constant (Kd) of 1030 pM. The “Reporter gene-assay [pM]” value in experiment [3] amounted to 114 pM.

B20: Polypeptide_8 (VHH)
VHH: QVQLVESGGGLVQPGGSLRLSCAASGFTFSSYWMYWVRQAPGKGLEWVSGINTGGSTPDYADSVKGRFTISRDNAKNTLYLQMNSLRPEDTAVYYCAADTPRSFRLNHYSPLGQGTQVTVSS
notes: VHH_2.8 with C-terminal His tag extension E1; also called [VHH_2.8]-E1
As to B20, the Kd in experiment [2] amounted to 816 pM. In addition, the “Reporter gene-assay [pM]” value in experiment [3] is 36.8 pM.

B21: Polypeptide_9 (VHH)
VHH: QVQLVESGGGLVQPGGSLRLSCAASGFTFSNYWMYWVRQAPGKGLEWVSGIDTRGSTPDYADSVKGRFTISRDNAKSTFYLQMNSLRPEDTAVYYCATDTPRSFRLYHYVPLGQGTQVTVSS
notes: VHH_2.9 with C-terminal His tag extension E1; also called [VHH_2.9]-E1
In experiment [2], B21 showed a Kd of 903 pM. Besides, in experiment [3], the “Reporter gene-assay [pM]” value is 33.7 pM.

B22: Polypeptide_5 (VHH)
VHH: QLQLVESGGGLVQPGGSLRLSCAASGFTFSNYWMYWVRQAPGKGLEWVSGINTGGSTPDYADSVKGRFTISRDNAKNTLYLQMNSLRPEDTAVYYCAADTPRVFRLDHYSPLGQGTQVTVSS
notes: VHH_2.5 with C-terminal His tag extension E1; also called [VHH_2.5]-E1
Consider B22, for which the Kd in experiment [2] worked out at 696 pM. For the same molecule, in experiment [3], the “Reporter gene-assay [pM]” value is 23.2 pM.

B23: Polypeptide_2 (VHH)
VHH: EVQLVESGGGLVQPGGSLRLSCAASGFTFSNYWMYWVRQAPGKGLEWVSGINTGGSTPDYADSVKDRFTISRDNAKNTLYLQMNSLRPADTAVYYCAADTPRSFRLNHYAPLGQGTQVTVSS
notes: VHH_2.2 with C-terminal His tag extension E1; also called [VHH_2.2]-E1
Molecule B23 gave a Kd in experiment [2] of 1310 pM. For the same molecule, the “Reporter gene-assay [pM]” value in experiment [3] stood at 20.7 pM.

B24: Polypeptide_12 (VHH)
VHH: QVQLVESGGGLVQAGGSLRLSCTTSGRTFSSYAMAWFRQAPGKDREFVADIGENSDNIWYADSVKGRFTISRDNAKNTILLQMNSLKPEDTAVYYCAADSYGVGGGKPEYYDSWGQGAQVTVSS
notes: VHH_2.12 with C-terminal His tag extension E1; also called [VHH_2.12]-E1
B24 registered a Kd in experiment [2] of 1 pM. For the same molecule, the “Reporter gene-assay [pM]” value in experiment [3] is 77.4 pM.

B25: Polypeptide_11 (VHH)
VHH: EVQLVESGGGLVQAGGSLRLSCTASGRSFSSYAMGWFRQAPGKEREFVADIGVNPDNTWYADSAKGRFTISRDNAKNTMYLQMNSLKPEDTAVYYCAADSYGVGGGAERYYDSWGQGTQVTVSS
notes: VHH_2.11 with C-terminal His tag extension E1; also called [VHH_2.11]-E1
The molecule B25 registered a Kd in experiment [2] of 70.1 pM. For the same molecule, the “Reporter gene-assay [pM]” value in experiment [3] turned out to be 98.2 pM.

B26: Polypeptide_15 (VHH)
VHH: QVQLQESGGGLVQAGGSLRLSCTASGGTFSEYAMAWFRQAPGKEREFVTDIGESGGTWYADSVKGRFTISRDNAKNTVYLQMNSLRPEDTAVYYCAADSYGVGGGAERYYDSWGQGTQVTVSS
notes: VHH_2.15 with C-terminal His tag extension E1; also called [VHH_2.15]-E1
B26 came in with a Kd in experiment [2] of 1 pM. The “Reporter gene-assay [pM]” value in experiment [3] was 16.8 pM.

B27: Polypeptide_35 (VHH)
VHH: QVQLVESGGGLVQAGGSLRLSCTASGGTFGEYAMAWFRQAPGKEREFVTDIGESGGTWYADSVKGRFTISRDNAKNTVYLQMNSLRPEDTAVYYCAADSYGVGGGAERYYDSWGQGTQVTVSS
notes: VHH_1.10 with C-terminal His tag extension E1; also called [VHH_1.10]-E1
As for B27, binding in experiment [2] was put at a Kd of 1 pM. Besides, the “Reporter gene-assay [pM]” value in experiment [3] came to 24.6 pM.
